Kd data for one substance are collected here from article PMC3706390.

For the data set, the target named is L30 (ribosomal protein L30) wild-type (rat) (UniProt P62890). Nature of the data set: EMSA. The conditions noted are these: 30 mM Tris-HCl pH 8.0, 75 mM KCl, 5 mM MgCl2, 1 mM DTT, 0.04 ug/uL BSA, 10% glycerol, 50 ng/uL yeast tRNA, 30 C 15 min; EMSA gels 0.5X TBE at 4 C; RNase ….

On to PHGPx SECIS 102 nt (REMSA), for which the Kd (in general, the concentration at which binding is half-saturated) came to 490 nM.
